Data set [1] deals with MthMCM R137A mutant (Methanothermobacter thermautotrophicus). As to the kind of experiment: negative-stain electron microscopy.
The target of data set [2] is MthMCM RR137,160AA double mutant (Methanothermobacter thermautotrophicus). As to the kind of experiment: AUC.
Data set [3] deals with the molecule itself. As to the kind of experiment: AUC.
Data set [4] concerns the molecule itself. As to the kind of experiment: SEC + other: sucrose gradient sedimentation.

Results on three molecules are retold here after paper PMC2683335 (The Journal of biological chemistry, 2008).

The term stoichiometry N denotes the number of molecules, sites or subunits per partner or assembly. In the case of MthMCM R137A mutant (natural protein), in data set [1], the stoichiometry N worked out at 14 subunits.
Turning to “MthMCM RR137,160AA double mutant (natural protein)”, the stoichiometry N in data set [2] is 7 subunits.

B1: Methanothermobacter thermautotrophicus MCM (MthMCM), wild type (natural protein, UniProt O27798 1-666, looked up)
chain: MMKTVDKSKTLTKFEEFFSLQDYKDRVFEAIEKYPNVRSIEVDYLDLEMFDPDLADLLIEKPDDVIRAAQQAIRNIDRLRKNVDLNIRFSGISNVIPLRELRSKFIGKFVAVDGIVRKTDEIRPRIVKAVFECRGCMRHHAVTQSTNMITEPSLCSECGGRSFRLLQDESEFLDTQTLKLQEPLENLSGGEQPRQITVVLEDDLVDTLTPGDIVRVTGTLRTVRDERTKRFKNFIYGNYTEFLEQEFEELQISEEDEEKIKELAGDPNIYEKIIRSTAPSIHGYREVKEAIALQLFGGTGKELDDKTRLRGDIHILIVGDPGIGKSQMLKYVSKLAPRGIYTSGKGTSGVGLTAAAVRDEFGGWSLEAGALVLGDKGNVCVDELDKMREEDRSAIHEALEQQTISIAKAGIMATLNSRCSVLAAANPKFGRFDSYKSIAEQIDLPSTILSRFDLIFVVEDKPDEEKDRELARHILKTHKEDHMPFEIDPELLRKYIAYARKNVRPVLTDEAMQVLEDFYVSMRASAADEDSPVPITARQLEALVRLSEASAKIKLKEHVEAEDARKAIKLSQACLKQVGYDPETGKIDIDKVEGRTPKSERDKFRLLLELIKEYEDDYGGRAPTNILITEMMDRYNVSEEKVEELIRILKDKGAIFEPARGYLKIV
For the molecule B1, the entries for the “stoichiometry N” value in data set [3] and in data set [4] were 12.2 subunits/complex and 11.6 monomers, respectively.
